Earlier results as cited in paper PMC3324669.

Target: CD155 (Homo sapiens) (UniProt P15151)

Kd: 2 nM
Substance: CD226 (from UniProt Q15762)
